# Assay results from patent US20230392126A1, “TISSUE ORGANOIDS” (priority 2016, published 2023).
# Key:
# human epidermal cells = type: cell-based
# [1] = Extinction and cocaine-induced reinstatement of CPP; type: in vivo, mouse; conditions: grafted after CPP acquisition; priming 15 mg/kg cocaine
# Method: Extinction and reinstatement of CPP: Following CPP acquisition, mice underwent extinction, in which the procedure was identical to that in the test day. In each extinction day, mice were allowed to explore the entire chambers for 20 min and time spent in each area was recorded. Extinction was performed until the CPP decreased to a level that was not different from that of the pretest in consecutive two days. On the following day of the last extinction, mice underwent reinstatement procedures, in which mice that were trained for cocaine CPP received an i.p. injection of 15 mg/kg cocaine, and mice that were trained for ethanol CPP received an i.p. injection of 1 g/kg ethanol. Immediate after injection, mice were allowed to explore the entire chambers for 20 min and time spent in each area was recorded.
# Specific methods: One group of GhBChE and one group of GWT mice (n=9 in each group) were trained for cocaine CPP 7 days after engraftment (FIG. 18A). Mice underwent pretest on Day 1, four days of cocaine conditioning day 2 to Day 5, and CPP test on Day 6. One group of GhBChE and one group of GWT mice (n=8 in each group) were trained for ethanol CPP 7 days after engraftment (FIG. 18B). Mice underwent pretest on Day 1, four ethanol conditioning day 2 to Day 5, and CPP test on Day 6. […]
# [2] = Acquisition of ethanol CPP in GhBChE and GWT mice; type: in vivo, mouse; conditions: 2 g/kg ethanol i.p., specificity control
# Method: CPP apparatus: The CPP apparatus (FIG. 17; Med Associates, E. Fairfield, VT, USA) consisted of two larger chambers (16.8×12.7×12.7 cm), which were separated by a smaller chamber (7.2×12.7×12.7 cm) as previously described (Yan et al., 2013). […] Time spent in each chamber was measure via photobeam breaks and recorded. CPP was determined on testing days via time spent in the drug-paired side minus time spent in the saline-paired side.
# Acquisition of CPP: A biased CPP procedure was used similar to that from a previous study (Yan et al., 2013). Acquisition of CPP consisted of three sequential procedures—pretest, conditioning, and test. […] On Day 6 (test day) mice were allowed to explore the entire chambers for 20 min and time spent in each area was recorded. […]
# Next, protection against development of cocaine-seeking was assessed using the conditioned place preference (CPP) paradigm, which is thought to model reward learning and seeking because experimental animals approach and remain in contact with cues that have been paired with the effects of the reward. hBChE-expressing cells were grafted to cocaine-naïve mice with GWT animals as controls. […] As an additional control, ethanol CPP was measured after 4 days of conditioning in GhBChE and GWT mice.
# [3] = Stability and tolerance of transplanted skin organoids in immunocompetent hosts; type: in vivo, mouse; conditions: isogenic hosts CD1 and C57BL/6
# Excerpt: For grafting with skin organoids, CD1 (isogenic mouse keratinocyte transplantation) males or Nude (human keratinocyte transplantation) females with the ages of 6-8 weeks were anesthetized. A silicone chamber bottom with the interior diameter of 0.8 cm and the exterior diameter of 1.5 cm was implanted on its shaved dorsal mid-line skin, which was used to hold the skin graft. A chamber cap was installed to seal the chamber right after a piece of graft was implanted. About one week later, the chamber cap was removed to expose the graft to air. A single dose of 0.2 mg α-CD4 (GK1.5) and 0.2 mg α-CD8 (2.43.1) antibodies was administered intraperitoneally for skin grafting.
# Optical imaging was performed in the integrated small animal imaging research resource (iSAIRR) at the University of Chicago. Bioluminescence images were acquired on an IVIS Spectrum (Caliper Life Sciences®, Alameda, CA) after animal was injected with luciferin (100 mg/kg). […]
# Grafted cells in immunocompetent hosts readily expressed exogenous genes, such as Luciferase and Histone H2B-RFP (FIG. 1B-D), which were transduced to the cells with lentivirus. […] Importantly, the tissue organoid with expression of exogenous gene, such as Luciferase and H2B-RFP, was stable in vivo for more than 5 months in immunocompetent hosts, as determined by intravital bioluminescence imaging and tissue histology. […]
# [4] = hBChE in blood by ELISA, nude mice grafted with human skin organoids
molecule,measurement,setting,value
"hBChE: modified human butyrylcholinesterase (E30-6, SEQ ID NO: 41), cocaine hydrolase, expressed from engineered epidermal cells / skin grafts (protein, Human mutant BChE) MHSKVTIICIRFLFWFLLLCMLIGKSHTEDDIIIATKNGKVRGMNLTVFGGTVTAFLGIPYAQPPLGRLRFKKPQSLTKWSDIWNATKYANSCCQNIDQSFPGFHGSEMWNPNTDLSEDCLYLNVWIPAPKPKNATVLIWIYGGGFQTGTSSLHVYDGKFLARVERVIVVSMNYRVGALGFLALPGNPEAPGNMGLFDQQLALQWVQKNIAAFGGNPKSVTLFGESSGAASVSLHLLSPGSHSLFTRAILQSGSANAPWAVTSLYEARNRTLNLAKLTGCSRENETEIIKCLRNKDPQEILLNEAFVVPYGTALGVNFGPTVDGDFLTDMPDILLELGQFKKTQILVGVNKDEGTWFLVGGAPGFSKDNNSIITRKEFQEGLKIFFPGVSEFGKESILFHYTDWVDDQRPENYREALGDVVGDYNFICPALEFTKKFSEWGNNAFFYYFEHRSSKLPWPEWMGVMHGYEIEFVFGLPLERRDNYTKAEEILSRSIVKRWANFAKYGNPNETQNNSTSWPVFKSTEQKYLTLNTESTRIMTKLRAQQCRFWTSFFPKVLEMTGNIDEAEWEWKAGFHRWNNYMMDWKNQFNDYTSKKESCVGL",hBChE production,human epidermal cells,strong hBChE production
same,cocaine-induced reinstatement of preference,[1],restored in the GWT mice but not in the GhBChE mice
same,ethanol CPP after 4 days of conditioning,[2],spent significantly more time in ethanol-paired environments
same,time without significant rejection of skin grafts,[3],at least 5 months
same,duration of stable hBChE expression in vivo,[4]; human grafts,more than 8 weeks
same,level of human BChE in the blood,[4]; human hBChE-expressing grafts,significantly levels of human BChE in the blood
